The text below walks through data of patent publication US20230398116A1, “Agent for reversing resistance to anticancer drugs” (Y'S AC CO., LTD., priority 2020, published 2023).

Test [1] deals with E0771 cells. As to the kind of experiment: MTT assay / cell proliferation (confluence) assay, E0771. Format: cell-based, mouse. Particulars: E0771, erlotinib 30 μM or 50 μM, 48 hours, MTT, FIG. 10. How it is done:
(§1) Human and mouse breast cancer cells (1×10^4) were cultured in 10% FCS containing RPMI1640 medium on a 96-well flat bottom plate (Corning, Tewksbury, MA) at 37° C. for 24 hours, and then stimulated with IL-26 for 48 hours in the presence or absence of EGFR-TKI (gefitinib or erlotinib) at various concentrations, a signal inhibitor, and a neutralizing antibody. HUVECs were seeded in a 96-well flat bottom plate at 5×10^3 cells/well in a 2% FBS-containing EGM medium in which growth factors were reduced by half, and cultured at 37° C. for 12 hours. Thereafter, the medium was aspirated, and a recombinant human IL-26 dimer was adjusted to a final concentration of 10 ng/mL in a 2% FBS-containing EGM medium containing no growth factors, and added to the cells. The stimulation was started in the presence or absence of control human IgG and anti-human IL-26 antibodies, and the cells were cultured for 48 hours. Thereafter, a concentration of 20 μl or 1/10 of a 5 mg/ml MTT solution (Tetrazolium monosodium salt, WST-8) was added to each well, and the plate was allowed to stand for 1 hour. The absorbance at 450 nm/595 nm was measured using Microplate Reader (Bio-Rad, Hercules, CA) and data was analyzed with Microplate Manager 6 software (Bio-Rad).
(§2) Human and mouse breast cancer cells (1×10^4) were cultured in RPMI1640 medium containing 10% FCS for 24 hours at 37° C. on a 96-well flat bottom plate (Corning), and then stimulated with IL-26 (30 ng/ml) in the presence or absence of various concentrations of gefitinib and a neutralizing antibody. Cell proliferation was measured as cell confluence using IncuCyte ZOOM (Essen Bioscience, Ann Arbor, MI).
(Formazan colour is commonly taken as a measure of viable cells.)

Test [2] deals with MDA-MB468 cells. The test can be described thus: MTT assay / cell proliferation (confluence) assay, MDA-MB468. Format: cell-based, human. Particulars: MDA-MB-468, erlotinib 30 μM or 50 μM, 48 hours, MTT, FIG. 10. How it is done: as §1, §2
For test [3], the system named is HCC70 cells. The test can be described thus: MTT assay / cell proliferation (confluence) assay, HCC70. Format: cell-based, human. The settings on record: HCC70, erlotinib 30 μM or 50 μM, 48 hours, MTT, FIG. 10. How it is done:
as §1, §2

Test [4] addresses T1, EphA3/IL-26 interaction (Homo sapiens, UniProt Q9NPH9).
T1 construct: purchased R&D Systems; host or cells: IL-26 was purchased; EphA3 is endogenous on E0771 cells
T1 sequence (Q9NPH9 22-171): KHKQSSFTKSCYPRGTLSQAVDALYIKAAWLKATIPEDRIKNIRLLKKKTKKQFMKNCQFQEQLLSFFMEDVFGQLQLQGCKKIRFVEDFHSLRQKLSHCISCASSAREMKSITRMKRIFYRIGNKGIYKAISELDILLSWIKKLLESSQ
As to the kind of experiment: Immunofluorescence of rhIL-26-Alexa 488 and cell surface EphA3 on E0771 cells. The test is classed as cell-based, mouse. Particulars: E0771, antibodies 10 μg/ml, FIGS. 19 and 20. How it is done: E0771 and HCC70 cells (1×10^5) were cultured for 24 hours in RPMI1640 medium with 10% FCS on Lab-Tek chamber slides (Thermo Fisher Scientific). The cultured cells were stimulated with Alexa Fluor 488 labeled IL-26 (30 ng/ml) in the presence or absence of recombinant human and mouse EphA3-Ig for 1 hour. HCC70 cells were stimulated with IL-26 (30 ng/ml) in the presence or absence of gefitinib (40 μM), a signal inhibitor, and a neutralizing antibody for 24 hours. Subcutaneous tumor samples obtained from mice were fixed in 4% paraformaldehyde (Thermo Fisher Scientific) and embedded in OCT compound (Tissue-Tek (registered trademark), Sakura Finetek, Japan). Cells and slides were immunostained with each antibody and observed using a Zeiss inverted microscope and Axiovision 2.0 program (Carl Zeiss, Germany). The fluorescence intensity was quantified with Image-J software (NIH). The images were captured using a 100×400× objective.

Test [5] addresses T2, recombinant human IL-26/AK155 monomer, Cat #1375-IL/CF, R&D Systems (human, UniProt Q9NPH9 22-171).
T2 construct: also called recombinant human IL-26 monomer
T2 sequence (looked up): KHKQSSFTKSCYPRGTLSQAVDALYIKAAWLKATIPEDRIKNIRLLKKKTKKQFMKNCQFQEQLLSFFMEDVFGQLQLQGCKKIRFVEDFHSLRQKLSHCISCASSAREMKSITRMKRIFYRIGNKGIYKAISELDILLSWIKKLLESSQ
As to the kind of experiment: ELISA, human IL-26 monomer coated at 0.5 µg/ml, antibody diluted 2-fold from 5 µg/ml, HRP anti-human kappa detection. As for the experimental part:
(§3) The antigen binding of purified Ch69-10-IgG1, Hu69-10A-IgG1, and Hu69-10B-IgG1 was analyzed by ELISA. ELISA plates were coated overnight at 4° C. with the addition of 0.5 μg/ml human IL-26 (recombinant human IL-26/AK155 monomer, Cat #1375-IL/CF, R&D Systems, Minneapolis, MN) at 100 μl/well in 0.2 M sodium carbonate buffer (pH 9.4). Wells were washed with the wash buffer and blocked with the ELISA buffer. Subsequently, 100 μl/well of test antibody (mouse 69-10, Ch69-10-IgG1, Hu69-10A-IgG1, or Hu69-10B-IgG1) serially diluted 2-fold in RPMI medium starting at 5 μg/ml was added to measure a binding with IL-26. After incubation at room temperature for 1 hour and washing the plates with a wash buffer, a 1/2,000-diluted HRP-conjugated goat anti-human kappa chain polyclonal antibody (Bethyl Laboratories) (for Ch69-10-IgG1, Hu69-10A-IgG1 and Hu69-10B-IgG1) or a 1/2,000-diluted HRP-labeled goat anti-mouse kappa chain polyclonal antibody (Bethyl Laboratories) (for mouse 69-10) in ELISA buffer was added at 100 μl/well to detect bound antibodies. After incubation at room temperature for 30 min and washing with the wash buffer, 100 μl/well of ABTS substrate (Sigma Aldrich) was added to start color development and 100 μl/well of 2% oxalic acid was added to stop the color development. The absorbance was measured at 405 nm.

The target of test [6] is T3, IL-26 (Homo sapiens, UniProt Q9NPH9).
T3 sequence (Q9NPH9 22-171): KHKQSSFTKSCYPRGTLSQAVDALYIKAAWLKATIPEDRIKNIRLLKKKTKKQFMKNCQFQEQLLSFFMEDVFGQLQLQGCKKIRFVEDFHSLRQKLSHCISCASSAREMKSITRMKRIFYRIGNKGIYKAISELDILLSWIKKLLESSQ
The test can be described thus: ELISA of antigen binding to human IL-26. Also on record: purchased R&D Systems 1375-IL/CF. The settings on record: plates coated with 0.5 μg/ml human IL-26 monomer; calculated using GraphPadPrism. How it is done: as §3

For test [7], the system named is phosphorylation of AKT, JNK and EphA3 in HCC70 cells. The test can be described thus: Western blotting of phosphorylation in HCC70 cells. Format: cell-based, human. Particulars: gefitinib 40 μM. As for the experimental part: To analyze the phosphorylation of AKT, ERK, p38, JNK, STAT3, and EphA3, E0771 cells and HCC70 cells in 100 mm dishes were stimulated with IL-26 ([…]) and an anti-EphA3 polyclonal antibody (pAb) (10 μg/ml) for a specified period of time. After stimulation, the cells were lysed with a 2% protease inhibitor mixture (Sigma-Aldrich) and/or RIPA buffer added with 1×PhosSTOP (Roche Diagnostics, Tokyo, Japan), and a lysate was separated in a reduced state by SDS-PAGE (15 μg/lane). Immunoblots were performed using an anti-phosphorylated AKT antibody, an anti-phosphorylated ERK antibody, an anti-phosphorylated p38 antibody, an anti-phosphorylated JNK antibody, an anti-phosphorylated STAT3 antibody, and an anti-phosphorylated EphA3 antibody that recognize both human and mouse antigens. For reprobing, the membrane was immersed in a stripping buffer. After the stripping procedure, the membranes were re-probed with anti-pan-AKT, anti-pan-ERK, anti-pan-p38, anti-pan-JNK, anti-pan-STAT3, and anti-pan-EphA3 antibodies recognizing both human and mouse antigens. Images were taken using a C-Digit Blot scanner (MS Techno Systems, Inc., Japan).

[8] abbreviates: HCC70, Ephrin A5 200 ng/ml, FIG. 26 left.

One may read the EC50 as the concentration at which the effect is half-maximal.

Consider `C#Cc1cccc(Nc2ncnc3cc(OCCOC)c(OCCOC)cc23)c1` [erlotinib, Erlotinib, reference compound], for which the “cell proliferation under erlotinib” value in test [1], in test [2] and in test [3] was “inhibitory effect of erlotinib on cell proliferation” each time.

B1: mouse soluble EphA3: recombinant mouse EphA3 Fc chimeric protein purchased from R&D Systems (protein)
chain: ELSPQPSNEVNLLDSKTIQGELGWISYPSHGWEEISGVDEHYTPIRTYQVCNVMDHSQNNWLRTNWVPRNSAQKIYVELKFTLRDCNSIPLVLGTCKETFNLYYMESDDHGVKFREHQFTKIDTIAADESFTQMDLGDRILKLNTEIREVGPVNKKGFYLAFQDVGACVALVSVRVYFKKCPFTVKNLAMFPDTVPMDSQSLVEVRGSCVNNSKEEDPPRMYCSTEGEWLVPIGKCTCNAGYEERGFICQACRPGFYKASDGAAKCAKCPPHSSTQEDGSMNCRCENNYFRAEKDPPSMACARPPSAPRNVISNINETSVILDWSWPLDTGGRKDITFNIICKKCGWNVRQCEPCSPNVRFLPRQLGLTNTTVTVTDLLAHTNYTFEIDAVNGVSELSSPPRQYAAVSITTNQAAPSPVMTIKKDRTSRNSISLSWQEPEHPNGIILDYEVKYYQKQEQETSYTILRARGTNVTISSLKPDTTYVFQIRARTAAGYGTNSRKFEFETSPDSFSISGENSH
modifications: left off: a dimerising Fc or GST
notes: recombinant mouse EphA3 Fc chimeric protein purchased from R&D Systems
For B1, in test [4], the “inhibition of colocalization of IL-26 with EphA3 (EphA3/IL-26 interaction)” value is “inhibited EphA3/IL-26 interaction”.

B2: chimeric 69-10 IgG1/kappa antibody (Ch69-10-IgG1) (antibody, V domains shown)
VH: QVTLKESGPGILKPSQTLSLTCSFSGFSLSTSGMGVGWIRQPSGKGLEWLAHIWWDDDKYYNPSLKSQLTISKDTSRNQVFLKITSVDTADTATYYCVRGGITATHYYAMDYWGQGTSVTVSS
VL: DIQMTQSPASQSASLGESVTISCLASQTIGTWLSWYQQKPGKSPQLLIYAATSLADGVPSRFSGSGSGTKFSFKISSLQAEDFVSYYCQQLYSSPWTFGGGTKLEIK
notes: also called clone 1H8
Take B2: in test [5], the EC50 worked out at 0.299 µg/mL.

B3: Ch69-10-IgG1: chimeric 69-10 IgG1/kappa antibody with mouse 69-10 VH and VL and human constant regions (antibody, V domains shown)
VH: QVTLKESGPGILKPSQTLSLTCSFSGFSLSTSGMGVGWIRQPSGKGLEWLAHIWWDDDKYYNPSLKSQLTISKDTSRNQVFLKITSVDTADTATYYCVRGGITATHYYAMDYWGQGTSVTVSS
VL: DIQMTQSPASQSASLGESVTISCLASQTIGTWLSWYQQKPGKSPQLLIYAATSLADGVPSRFSGSGSGTKFSFKISSLQAEDFVSYYCQQLYSSPWTFGGGTKLEIK
As to B3, the “EC50 values (binding to human IL-26, ELISA)” value in test [6] was 0.299 µg/mL.

B4: Hu69-10A-IgG1/kappa antibody (Hu69-10A-IgG1) (antibody, V domains shown)
VH: QVTLKESGPALVKPTQTLTLTCTFSGFSLSTSGMGVGWIRQPPGKALEWLAHIWWDDDKYYNPSLKSQLTISKDTSKNQVVLTMTNMDPVDTATYYCVRGGITATHYYAMDYWGQGTTVTVSS
VL: DIQMTQSPSSLSASVGDRVTITCLASQTIGTWLSWYQQKPGKAPKLLIYAATSLADGVPSRFSGSGSGTKFTFTISSLQPEDIATYYCQQLYSSPWTFGGGTKVEIK
notes: also called h69-10A; humanized anti-IL-26 antibody Hu69-10A
Take B4: the EC50 in test [5] stood at 0.304 µg/mL.

B5: Hu69-10B IgG1/kappa antibody (Hu69-10B-IgG1) (antibody, V domains shown)
VH: QVTLKESGPALVKPTQTLTLTCTFSGFSLSTSGMGVGWIRQPPGKALEWLAHIWWDDDKYYNPSLKSQLTISKDTSKNQVVLTMTNMDPVDTATYYCVRGGITATHYYAMDYWGQGTTVTVSS
VL: DIQMTQSPSSLSASVGDRVTITCLASQTIGTWLSWYQQKPGKAPKLLIYAATSLADGVPSRFSGSGSGTDFTFTISSLQPEDIATYYCQQLYSSPWTFGGGTKVEIK
notes: also called h69-10B; humanized anti-IL-26 antibody Hu69-10B
B5: the half-maximal effective concentration (EC50) in test [5] worked out at 0.396 µg/mL.

B6: Ephrin A5: known ligand of EphA3 (protein, UniProt P52803 21-203, looked up)
Ephrin-A5: QDPGSKAVADRYAVYWNSSNPRFQRGDYHIDVCINDYLDVFCPHYEDSVPEDKTERYVLYMVNFDGYSACDHTSKGFKRWECNRPHSPNGPLKFSEKFQLFTPFSLGFEFRPGREYFYISSAIPDNGRRSCLKLKVFVRPTNSCMKTIGVHDRVFDVNDKVENSLEPADDTVHESAEPSRGEN
As for B6, in test [7] (setting [8]), the “phosphorylation of AKT” value is “slightly enhanced”; the “phosphorylation of JNK and EphA3” value is “little effect”. Besides, in test [7] (HCC70, IL-26 30 ng/ml or Ephrin A5 200 ng/ml, FIG. 26), the “dephosphorylation of EphA3, activation of AKT and JNK phosphorylation” value was “such changes were not observed”.
